According to the DeepSol protein solubility set:

assay: soluble on expression in E. coli; label from the status in PepcDB or PDB records

Sequence | soluble on expression in E. coli
MSQSASQDLSDFLGDDRFATVMADPPWRFTNRTGKVAPEHKRLARYPTMTLEDICALPVADYLQDRAHCYLWVPNALLPEGLQVLSAWGFEYKSNIVWHKVRKDGGSDGRGVGFYFRNVTELLLFGTKGKNARTLAPGRRQVNMMQTRKREHSRKPDEQYELIESCSWGPYLEMFGRGVRDGWTVWGNQADADYKPSWKTYSYNSGVAAELEHHHHHH | soluble
MDSSNPSSLPLEKSSGNVQKGKLLNIWSRCIAQPSSFLGSSISRFWANADIKNRVCSAAIGRVNFVSKCLKKFPEVSLSCNISASLSLNTGKEKVKNEDLEKQERCHKVAMIEYEIQNLERQLKKRQF | not soluble
MSVEASNQENSLSSFLLKCAFPAGTTPPLLSPPSSSGSYEEAQFSLFVNQNETEQKLFSNQSLANRDPCTIPDELHQEMKSLKKKEEAFKTSLCGFHRRGQKCAYGEKCKFAHSVHELRFPQTKRNHRNYKTVLCNNFSTTGHCKYGIRCQFIHRSMNSTSSNQSNKMENITIDLNVQSDVFRAFALDSTSLLPNWHCSALLQ | not soluble
MSELDFVRRGQDLKAYRALNWEGSFADYLRLLKEDPRPLRTSFQRVHDMILAHGVEEYTRFKEKLLHYRFFDDPFEGGKDAVFGLDKPLMRLVATLKAAAHRLGPERRILLLHGPVGSAKSTIARLLKKGLEAYSRTEEGKLFTFYWKTEEGPLPCPMHEEPLHLLPQDLREAFLEELRALHPDYPYPLEVEGDLCPVCRFQMREGLRKYEGDLAALLEHEVVVKRLVLSEKDRVGIGTFQPKDEKNQDSTELTGDINYRKVALYGSDSDPRAFNFDGELNIANRGIVEFIEILKLDVAFLYDLLTASQEHKIKSKKFAQTDIDEIVLGHTNEPEYRKLQANEYMEALRDRTIKIDVPYILRVSDEVRIYQRDFAKVRGKHIAPHTLEMAATWAVLTRLEPPKRAGLTLMQKLKLYDGKLLPGWTEEAVRELMGEAKREGLEGISPRYIQDKISNVLVTSEEPCINPFMVMNELEEGLKHHSLISDERTRERYRALLQEVKAEYAEIVKNEVQRAIAADEEALNRLFHNYIDHVKAYVLGEKVKNPYTGAPEPPNERLMRSIEERIDIPESRKDDFRREIMNYIGALALEGKPFTYKDNDRLRRALELKLFDDQKDTIRLSALVSGVVDPETQAKIDVVKARLIRDYGYCEHCASGVLEFAASLFARS | soluble
MPPGKKGQASSLGQNKVHFHKYNLILLPPDTISSHSSEERGLLWKHRLSQARTSYSSHVRILVRIRKMWEKTPHMRIGNIFFKKREL | not soluble
MSTNKRRTIQIEITEEHFKDLEKALEALKGTQLPFSTTVEQFVELILSNYVATSNKISNLAESGFDVASIQQELEKIGSAAGADDALKSFLDELLKTSQKSFSNTKDGKKNDDDNNSSSKS | soluble
MSECLMFGMDCEARCMTSMTADEENICFLVGTNNIKNDKNQVNKLFMDPEASRLMSKTFRHPAGEVRAIAAHPTKSTILATCTADFSSLGGTHSITIWNIEEDKRTLETVSRLPTEQVMSCLEWEPNSMKCAAMTPFRPEIQLLNMENGPEIVQNLKIPLENEEDEMFSATWSPHHDGNMLGVTGGRTAWCIDCRTDNEYLKIRDAHIHRTISMDFNPNLQHVIATCGDDGYVRIWDTRSTSSALTSLHPHAHWVWSVRFHPVHDQLLLTGGSDASVVLSCAQSVSSEQQIEFRDDEEEEEDDDLVEKLQDGQLERIDEHEDSVYACAWSSADPWTFASLSYDGRMIVSNVSRKHKYALMQL | not soluble
MSLSVPAAAPEDSVISAEETTTGSAVTNVQFSNEQVITENGKYKVSKLAPSLSFLPSNVELCCSVDAKSGYALCCDTDNVYVWPFLSSETHPSFVRIPLHDEEYESWSRPPLCCFTWPSVLERDLKSSPGLFLVNSRSGDIQFYEDVDTVSQVASFLTQTKRHKSVLKLRDGEYVENLINAEPAGILLSTNYGRVEFCTIRDANGKPFVSLKQTIIKCQVGIFSSMSKSKRVVSLKLGEISGKGERIVSILTQGGRYQVWNLSSVGNCYKKIDLNVQSEISQAVLEHFPLATSTLKLLDCHPLSGDSDAYLFLSFLAESNETHYLLSTIIVDEDTNSFAIFSTYRLNTYTRPLSDEFAPRLIVPTAYTKEHLPITSVYTLFSDAAVLTQTSSKLDSNYPFKRKWEDIIRFNKDMKVLGYDCNSSSLYITDGRTCALKLETFEKYENSDFQEIRFIKSHVDQYVYFGGQSTDEGHHHHHH | soluble
EFILVQADTPSSPSIDQVEPYSSTAQVQFDEPEATGGVPILKYKAEWRAVGEEVWHSKWYDAKEASMEGIVTIVGLKPETTYAVRLAALNGKGLGEISAASEFKTQPVREPSAPKLEGQMGEDGNSIKVNLIKQDDGGSPIRHYLVRYRALSSEWKPEIRLPSGSDHVMLKSLDWNAEYEVYVVAENQQGKSKAAHFVFRTSAQPTAIPANGSPTSGL | soluble
MNRMRRSTAFSEHVTFHTVMAKRGTGSKLDREVEIQFTNLQLIGTGSFGAVYKAVLRENDEPIAIKKIKVDDRFKSRELTIMHEMDHPNIIRLLYYYVMQQENCLNFVMEFMPKDLAYVHRQFAHNDKQMPAYSIKLYMFQLLRGIGFLHLHNIVHRDIKPKNLLVDESNGILKICDFGSAKRLEKNEPNITYICSRYYRAPELIFGSKNYDTSIDTWSVGTVVGELLHNSPIFLADSAVDILALQIKAFGTPSKEDMAKWNYEYVHIPYDTITGVGIQKFIGRKLSLSTLELLNSLMKMDPKLRIKPYEALTLPYFDDLRDPHYKLPSGAPIPPLFDWLEREYIANHEIIKDIFPRSEEGDKVECL | not soluble
MGHHHHHHSHMAAVDIRDNLLGISWVDSSWIPILNSGSVLDYFSERSNPFYDRTCNNEVVKMQRLTLEHLNQMVGIEYILLHAQEPILFIIRKQQRQSPAQVIPLADYYIIAGVIYQAPDLGSVINSRVLTAVHGIQSAFDEAMSYCRYHPSKGYWWHFKDHEEQDKVRPKAKRKEEPSSIFQRQRVDALLLDLRQKFPPKFVQLKPGEKPVPVDQTKKEAEPIPETVKPEEKETTKNVQQTVSAKGPPEKRMRLQ | soluble
MGSDKIHHHHHHMSQNASNDHMALSEDYVRNFFTYADPDNEAMLQLYRIGVFRTAKALSAGWIMPDEDARTARNLEYLRDNFEPGDVSVGELVSSETQLASFPDIYFRIRKVLDSPNSSADDISREISNDLGLTAKLLKLVNSPFYGLAHTVEDVSHAIAIVGVEEVSTLALGISAINVFKDIPQELIDMKAFWKHSVSCGVFAKLIASRIEGMKADKFFTAGLLHDVGRLIIFKKMPYASVQLLLYARENQLPVVESEEDHLGFDHTQVAKQLLTEWKFPASMVDCLAFHHAPSQAQDQLAASILQLADNMANAMEISSGGMYLLPGMEEGAWERIPLQGDDLVEIVGLFDSHIEELFKAIL | not soluble
